# Experimental data: paper PMC6886297
# Legend:
# YFP‐labeled Bcl‐xl [1] = target: YFP‐labeled Bcl‐xl (UniProt Q07817); assay: FRET or BRET; live-cell FRET two-hybrid assay (E-FRET and 3^3-FRET) in HeLa cells coexpressing CFP-Mff and YFP-Bcl-xl, 50 µM Z-VAD-FMK; cytoplasm of cells with punctate Mff and Bcl-xl distribution (ROI 3)
# YFP‐labeled Bcl‐xl [2] = target: YFP‐labeled Bcl‐xl (UniProt Q07817); assay: FRET or BRET; live-cell FRET two-hybrid assay (E-FRET and 3^3-FRET) in HeLa cells coexpressing CFP-Mff and YFP-Bcl-xl, 50 µM Z-VAD-FMK; cytoplasm of cells with filamentous Mff and Bcl-xl distribution (ROI 1)
# YFP‐labeled Bcl‐xl [3] = target: YFP‐labeled Bcl‐xl (UniProt Q07817); assay: FRET or BRET; live-cell FRET two-hybrid assay (E-FRET and 3^3-FRET) in HeLa cells coexpressing CFP-Mff and YFP-Bcl-xl, 50 µM Z-VAD-FMK; fragmented mitochondrial region of cells with punctate distribution (ROI 4)
# YFP‐labeled Bcl‐xl [4] = target: YFP‐labeled Bcl‐xl (UniProt Q07817); assay: FRET or BRET; live-cell FRET two-hybrid assay (E-FRET and 3^3-FRET) in HeLa cells coexpressing CFP-Mff and YFP-Bcl-xl, 50 µM Z-VAD-FMK; tubular mitochondrial region of cells with filamentous distribution (ROI 2)
# UniProt Q07817, sequence (Q07817 whole entry, the tested form may be a part): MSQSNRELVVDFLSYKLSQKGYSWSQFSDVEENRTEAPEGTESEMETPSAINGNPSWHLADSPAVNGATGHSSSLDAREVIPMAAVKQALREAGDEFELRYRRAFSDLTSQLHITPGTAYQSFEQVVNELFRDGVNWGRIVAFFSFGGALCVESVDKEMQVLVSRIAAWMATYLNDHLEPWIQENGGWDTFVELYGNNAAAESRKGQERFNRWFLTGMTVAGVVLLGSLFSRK
substance,measurement,setting,value
CFP‐labeled Mff (mitochondrial fission factor) (from UniProt Q9GZY8 1-342) (natural protein),EA (acceptor-centric FRET efficiency),YFP‐labeled Bcl‐xl [1],0.072
same,ED (donor-centric FRET efficiency),YFP‐labeled Bcl‐xl [1],0.041
same,stoichiometry N,YFP‐labeled Bcl‐xl [1],0.643 Bcl‐xl/Mff
same,EA (acceptor-centric FRET efficiency),YFP‐labeled Bcl‐xl [2],0.151
same,ED (donor-centric FRET efficiency),YFP‐labeled Bcl‐xl [2],0.086
same,stoichiometry N,YFP‐labeled Bcl‐xl [2],0.586 Bcl‐xl/Mff
same,EA (acceptor-centric FRET efficiency),YFP‐labeled Bcl‐xl [3],0.115
same,ED (donor-centric FRET efficiency),YFP‐labeled Bcl‐xl [3],0.109
same,stoichiometry N,YFP‐labeled Bcl‐xl [3],0.924 Bcl‐xl/Mff
same,EA (acceptor-centric FRET efficiency),YFP‐labeled Bcl‐xl [4],0.071
same,ED (donor-centric FRET efficiency),YFP‐labeled Bcl‐xl [4],0.067
same,stoichiometry N,YFP‐labeled Bcl‐xl [4],0.97 Bcl‐xl/Mff
